Measured values from publication PMC5743070 (The Journal of Biological Chemistry, 2017).

Key:
TTD (UHRF1_121–286) [1] = molecular target: T1, TTD (UHRF1_121–286) (Homo sapiens, UniProt Q96T88); assay: HSQC competition of BPC and linker peptide on TTD; type: binding; settings: BPC 2.4 mM, linker peptide 3.0 mM, 5% DMSO; I211, I212 and E281 resonances in HSQC
T1 construct: UHRF1_121–286 corresponding to the TTD; made in house
T1 sequence (Q96T88 121-286): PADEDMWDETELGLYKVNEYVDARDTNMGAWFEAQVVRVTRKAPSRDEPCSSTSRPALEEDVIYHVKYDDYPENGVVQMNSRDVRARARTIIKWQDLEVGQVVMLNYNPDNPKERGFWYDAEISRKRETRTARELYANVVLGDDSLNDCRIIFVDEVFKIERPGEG
Experimental: NMR samples were buffered in 20 mM sodium phosphate (pH 7.5), 150 mM NaCl, 5 mM DTT, 5 mM β-mercaptoethanol, 2 mM TCEP, and 10 μM ZnSO4. The protein concentration was between 200 and 300 μM for all samples. The data were collected at 25 °C on Bruker spectrometers equipped with cryoprobes and operating at 500, 600, or 800 MHz. The assignment of backbone TTD–PHD resonances was accomplished using the ABACUS method ([29]) for which standard backbone and ^15N-edited NOESY spectra were collected using ^15N/^13C/^2H- or ^15N/^13C-labeled protein. All 3D experiments were acquired using non-uniform sampling and processed using the software MDDGUI ([30]) or qMDD ([31]). ^15N-Labeled TTD–PHD was used to acquire ^15N T1 and T2 relaxation and ^1H-^15N heteronuclear NOE measurements ([32]) collected using standard Bruker pulse schemes in an interleaved manner. For T1 measurements, the variable delay was set to 0.1, 0.4, 0.8, 1.5, 2.0, 2.5, 3.5, and 5 s. For T2 measurements, the variable delay was set to 16, 32, 48, 64, 80, 96, 128, and 144 ms. The D1 was 3 s for all experiments. Reported values were the average from two measurements. All spectra were processed using NMRPipe ([33]) and analyzed with SPARKY ([34]). […]
trated by the perturbation of I211, I212 and E281 resonances in HSQC spectra of the TTD in a competition assay. […]

TTD–PHD (UHRF1_126–366) [2] = molecular target: T2, TTD–PHD (UHRF1_126–366) (Homo sapiens, UniProt Q96T88); assay: ITC of H3 peptide binding to TTD–PHD
T2 construct: His tag (TEV-cleavable) (N); made in house
T2 sequence (Q96T88 126-366): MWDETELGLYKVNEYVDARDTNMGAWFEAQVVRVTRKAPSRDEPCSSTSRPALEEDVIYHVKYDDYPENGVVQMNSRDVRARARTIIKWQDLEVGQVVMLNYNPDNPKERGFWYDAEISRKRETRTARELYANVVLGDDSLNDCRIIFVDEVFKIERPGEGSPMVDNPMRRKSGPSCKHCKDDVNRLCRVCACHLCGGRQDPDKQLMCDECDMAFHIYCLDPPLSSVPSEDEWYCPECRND
Experimental: A preliminary peptide injection of 0.06 μl was followed by subsequent 2-μl injections into the sample cell containing 167 μl of 50 μM TTD–PHD. Where indicated, 1.5 mM BPC or 1.5 mM PBR peptide was included in the injection syringe and sample cell. The reported KD and n values are based on the average from two measurements. For ITC measurements of TTD (UHRF1_121–286) interaction with BPC, the protein was buffered in 20 mM Tris (pH 7.4), 50 mM NaCl, and 5% DMSO. BPC was brought to a concentration of 2.5 mM and injected into the sample cell containing 40 μM protein. The data were acquired on a Nano ITC from TA Instruments at 25 °C and fitted with an independent-binding site model using NanoAnalyze software (v3.7.0).
ITC curves showing TTD-PHD binding to methylated (red) and unmethylated (black) H3 peptide.
(§1) (1 picture or pasted object on this page, not shown here)

TTD (UHRF1_121–286) [3] = molecular target: T1, TTD (UHRF1_121–286); assay: (1H-15N) HSQC NMR titration of TTD; type: binding; settings: (1H-15N) HSQC spectra of TTD
Excerpt: We designed a fragment library containing 2,040 compounds that was initially screened against isolated TTD (UHRF1_121–286) using a fluorescence polarization (FP) assay that tracked the displacement of a N-terminally tagged H3K9me3 peptide (H3K9me3(1–25)). From this screen, eight putative TTD-binding hits were identified. […] Because of limited commercial availability of the tricyclic amine, we focused only on BPC. The binding of this compound occurs close to (or within) the Arg^296-binding pocket; we observe significant perturbation of Trp^238 and Phe^278 resonances that form part of the pocket, and in Gly^236, which is directly adjacent to it (Fig. 4A and supplemental Fig. S5). We also see chemical shift changes in non-surface exposed residues that are close to or are in contact with the groove.
(§2) NMR samples were buffered in 20 mM sodium phosphate (pH 7.5), 150 mM NaCl, 5 mM DTT, 5 mM β-mercaptoethanol, 2 mM TCEP, and 10 μM ZnSO4. The protein concentration was between 200 and 300 μM for all samples. The data were collected at 25 °C on Bruker spectrometers equipped with cryoprobes and operating at 500, 600, or 800 MHz. The assignment of backbone TTD–PHD resonances was accomplished using the ABACUS method ([29]) for which standard backbone and ^15N-edited NOESY spectra were collected using ^15N/^13C/^2H- or ^15N/^13C-labeled protein. All 3D experiments were acquired using non-uniform sampling and processed using the software MDDGUI ([30]) or qMDD ([31]). ^15N-Labeled TTD–PHD was used to acquire ^15N T1 and T2 relaxation and ^1H-^15N heteronuclear NOE measurements ([32]) collected using standard Bruker pulse schemes in an interleaved manner. For T1 measurements, the variable delay was set to 0.1, 0.4, 0.8, 1.5, 2.0, 2.5, 3.5, and 5 s. For T2 measurements, the variable delay was set to 16, 32, 48, 64, 80, 96, 128, and 144 ms. The D1 was 3 s for all experiments. Reported values were the average from two measurements. All spectra were processed using NMRPipe ([33]) and analyzed with SPARKY ([34]).
Figure S5 (related to Fig. 4)
Binding of BPC in the groove of TTD. […]
labeled (at the N-terminus) H3K9me3(1-25) peptide, (B) ITC, and (C) DSF. (D) KD estimates of BPC bind-ing based on I211 and Y239 amide peak movement (where Δ(ppm) = ((ΔδHN)2 + (ΔδN/6.5)2 )1⁄2) in (1H-15N) HSQC spectra when the TTD is titrated with BPC. […]
as a function of TTD sequence resulting from BPC (blue) or PBR peptide (red) binding. (F) HSQC overlays […]
ment:protein), and PBR peptide ratios (bottom spectrum - from 1:1 to 5:1 peptide:protein). The protein con-centration was ~250 µM for all NMR experiments, and the DMSO concentration was 5% for NMR titrations […]
as §1

TTD–PHD (UHRF1_126–366) [4] = molecular target: T2, TTD–PHD (UHRF1_126–366); assay: (1H-15N) TROSY NMR titration of TTD–PHD; type: binding
Experimental: Exchange broadening is clearly observed for Arg^282, Gly^284, Asp^291, Asn^292, Met^294, and Ser^301 amide resonances at 1:3 protein/BPC ratios, with perturbations also seen with Gly^286 and Gly^299 (Fig. 4 and supplemental Fig. S6).
as §2

| competition for the TTD groove (TTD (UHRF1_121–286) [1]) | increase of KD for H3K9me3 (effect of added ligand) (TTD–PHD (UHRF1_126–366) [2]; 1.5 mM BPC or PBR peptide in syringe and cell, vs apo TTD–PHD) [fold] | binding site on TTD by amide peak movement (TTD (UHRF1_121–286) [3]) | effect on TTD–PHD conformation (TTD–PHD (UHRF1_126–366) [4]; Fig. 4) | Substance | effect on TTD–PHD binding affinity for the histone peptide (TTD–PHD (UHRF1_126–366) [2]; 1.5 mM BPC (4% DMSO) or 1.5 mM PBR peptide, H3K9me3(1–15)) | effect on linker resonances of TTD–PHD (TTD–PHD (UHRF1_126–366) [4]; (1H-15N) TROSY, ~250 μM protein/750 μM ligand) |
| --- | --- | --- | --- | --- | --- | --- |
| compete directly for the TTD groove | – | – | – | linker peptide: linker peptide (corresponding to UHRF1286-300) (GSPMVDNPMRRKSGP; UniProt Q96T88 286-300, looked up, fragment) [reference compound] | – | – |
| – | ~5 | binding in the groove | promote open TTD–PHD conformations | PBR peptide: 15-residue peptide corresponding to the PBR (UHRF1_643–657) (GKGKWKRKSAGGGPS; UniProt Q96T88 643-657, looked up, fragment) [reference compound] | reduces the TTD–PHD binding affinity for the histone peptide | strikingly similar peak broadening/perturbation pattern |
